# According to patent publication US20220064329A1 (Novo Nordisk, published 2022):
# Numbering of substitutions follows the chain as printed. Names may count otherwise.
# T1: recombinant human activated Factor VII (FVIIa) (human, UniProt P08709 61-212; P08709 213-466, ten glutamate residues of the Gla domain may be gamma-carboxylated)
# T1 construct: chains tethered by a disulfide bond; also called Factor VIIa; rFVIIa
# T1 sequence 1: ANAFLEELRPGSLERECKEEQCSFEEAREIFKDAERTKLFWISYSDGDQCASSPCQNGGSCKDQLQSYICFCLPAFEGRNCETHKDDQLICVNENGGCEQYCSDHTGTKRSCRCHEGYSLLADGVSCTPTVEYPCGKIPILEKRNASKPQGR
# T1 sequence 2: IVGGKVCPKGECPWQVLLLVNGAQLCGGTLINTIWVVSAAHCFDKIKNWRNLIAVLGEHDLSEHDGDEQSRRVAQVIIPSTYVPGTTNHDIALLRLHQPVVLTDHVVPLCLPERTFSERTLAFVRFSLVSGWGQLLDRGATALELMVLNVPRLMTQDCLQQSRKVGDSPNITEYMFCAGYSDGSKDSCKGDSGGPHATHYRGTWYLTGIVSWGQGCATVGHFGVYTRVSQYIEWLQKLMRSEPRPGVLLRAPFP
# B1: VH SEQ ID NO 570 / VL SEQ ID NO 414 (antibody, IgG4, V domains shown)
# VH: QVQLQESGPGLVKPSDTLSLTCAVSGYSISSDSAWSWIRQPPGKGLEWIGYIQYSGSTNYNPSLKSRVTMSRDTSKNQFSLKLSSVTAADTAVYYCARSVNYYGNSFAVGPWGQGTLVTVSS
# VL: EIVLTQSPATLSLSPGERATLSCRASQGVSDYLAWYQQKPGQAPRLLIKYASQPATGIPARFSGSGSGTDFTLTISSLEPEDFAVYYCQNGHSFPLTFGQGTKLEIK
# notes: humanized 11F2; IgG4 S228P/kappa
# B2: VH SEQ ID NO 570 / VL SEQ ID NO 462 (antibody, IgG4, V domains shown)
# VH: B1 VH
# VL: B1 VL with A34H, Q100A
# notes: as for B1
# B3: VH SEQ ID NO 578 / VL SEQ ID NO 478 (antibody, IgG4, V domains shown)
# VH: B1 VH with R72V, A89L
# VL: B1 VL with A34H, N90Q
# notes: as for B1
# B4: VH SEQ ID NO 578 / VL SEQ ID NO 350 (antibody, IgG4, V domains shown)
# VH: B1 VH with R72V, A89L
# VL: B1 VL with V29I, A34H, A51T, Q100A, I106L
# notes: as for B1
# B5: VH SEQ ID NO 578 / VL SEQ ID NO 486 (antibody, IgG4, V domains shown)
# VH: B1 VH with R72V, A89L
# VL: B1 VL with A34H, A84G
# notes: as for B1
# B6: VH SEQ ID NO 586 / VL SEQ ID NO 342 (antibody, IgG4, V domains shown)
# VH: B1 VH with R72V, A89L, P111Y
# VL: B1 VL with V29I, A34H, A51T, T69R, Q100A, I106L
# notes: as for B1
# B7: VH SEQ ID NO 570 / VL SEQ ID NO 470 (antibody, IgG4, V domains shown)
# VH: B1 VH
# VL: B1 VL with A34H
# notes: as for B1
# B8: VH SEQ ID NO 578 / VL SEQ ID NO 494 (antibody, IgG4, V domains shown)
# VH: B1 VH with R72V, A89L
# VL: B1 VL with A34H, F83V
# notes: as for B1
# B9: VH SEQ ID NO 578 / VL SEQ ID NO 454 (antibody, IgG4, V domains shown)
# VH: B1 VH with R72V, A89L
# VL: B1 VL with A34H, Q42E
# notes: as for B1
# B10: VH SEQ ID NO 586 / VL SEQ ID NO 366 (antibody, IgG4, V domains shown)
# VH: B1 VH with R72V, A89L, P111Y
# VL: B1 VL with V29L, Q42E
# notes: as for B1
# B11: VH SEQ ID NO 570 / VL SEQ ID NO 438 (antibody, IgG4, V domains shown)
# VH: B1 VH
# VL: B1 VL with F83V
# notes: as for B1
# B12: VH SEQ ID NO 570 / VL SEQ ID NO 494 (antibody, IgG4, V domains shown)
# VH: B1 VH
# VL: B1 VL with A34H, F83V
# notes: as for B1
# B13: VH SEQ ID NO 570 / VL SEQ ID NO 446 (antibody, IgG4, V domains shown)
# VH: B1 VH
# VL: B1 VL with A51T
# notes: as for B1
# B14: VH SEQ ID NO 578 / VL SEQ ID NO 470 (antibody, IgG4, V domains shown)
# VH: B1 VH with R72V, A89L
# VL: B1 VL with A34H
# notes: as for B1
# B15: VH SEQ ID NO 578 / VL SEQ ID NO 430 (antibody, IgG4, V domains shown)
# VH: B1 VH with R72V, A89L
# VL: B1 VL with A84G
# notes: as for B1
# B16: VH SEQ ID NO 586 / VL SEQ ID NO 318 (antibody, IgG4, V domains shown)
# VH: B1 VH with R72V, A89L, P111Y
# VL: B1 VL with V29I, A34H, Q42E, A51T
# notes: as for B1
# B17: VH SEQ ID NO 586 / VL SEQ ID NO 334 (antibody, IgG4, V domains shown)
# VH: B1 VH with R72V, A89L, P111Y
# VL: B1 VL with V29I, A34H
# notes: as for B1
# B18: VH SEQ ID NO 586 / VL SEQ ID NO 310 (antibody, IgG4, V domains shown)
# VH: B1 VH with R72V, A89L, P111Y
# VL: B1 VL with V29I
# notes: as for B1
# B19: VH SEQ ID NO 570 / VL SEQ ID NO 502 (antibody, IgG4, V domains shown)
# VH: B1 VH
# VL: B1 VL with A34H, A51T
# notes: as for B1
# B20: VH SEQ ID NO 570 / VL SEQ ID NO 430 (antibody, IgG4, V domains shown)
# VH: B1 VH
# VL: B1 VL with A84G
# notes: as for B1
# B21: VH SEQ ID NO 578 / VL SEQ ID NO 318 (antibody, IgG4, V domains shown)
# VH: B1 VH with R72V, A89L
# VL: B1 VL with V29I, A34H, Q42E, A51T
# notes: as for B1
# B22: VH SEQ ID NO 578 / VL SEQ ID NO 358 (antibody, IgG4, V domains shown)
# VH: B1 VH with R72V, A89L
# VL: B1 VL with V29I, A34H, A51T
# notes: as for B1
# B23: VH SEQ ID NO 578 / VL SEQ ID NO 326 (antibody, IgG4, V domains shown)
# VH: B1 VH with R72V, A89L
# VL: B1 VL with V29I, A34H, Q42E, A51T, A84G, Q100A, I106L
# notes: as for B1
# B24: VH SEQ ID NO 570 / VL SEQ ID NO 422 (antibody, IgG4, V domains shown)
# VH: B1 VH
# VL: B1 VL with N90Q
# notes: as for B1
# B25: VH SEQ ID NO 578 / VL SEQ ID NO 502 (antibody, IgG4, V domains shown)
# VH: B1 VH with R72V, A89L
# VL: B1 VL with A34H, A51T
# notes: as for B1
# B26: VH SEQ ID NO 570 / VL SEQ ID NO 478 (antibody, IgG4, V domains shown)
# VH: B1 VH
# VL: B1 VL with A34H, N90Q
# notes: as for B1
# B27: VH SEQ ID NO 578 / VL SEQ ID NO 334 (antibody, IgG4, V domains shown)
# VH: B1 VH with R72V, A89L
# VL: B1 VL with V29I, A34H
# notes: as for B1
# B28: VH SEQ ID NO 586 / VL SEQ ID NO 350 (antibody, IgG4, V domains shown)
# VH: B1 VH with R72V, A89L, P111Y
# VL: B1 VL with V29I, A34H, A51T, Q100A, I106L
# notes: as for B1
# B29: VH SEQ ID NO 578 / VL SEQ ID NO 342 (antibody, IgG4, V domains shown)
# VH: B1 VH with R72V, A89L
# VL: B1 VL with V29I, A34H, A51T, T69R, Q100A, I106L
# notes: as for B1
# B30: VH SEQ ID NO 586 / VL SEQ ID NO 358 (antibody, IgG4, V domains shown)
# VH: B1 VH with R72V, A89L, P111Y
# VL: B1 VL with V29I, A34H, A51T
# notes: as for B1
# B31: VH SEQ ID NO 578 / VL SEQ ID NO 462 (antibody, IgG4, V domains shown)
# VH: B1 VH with R72V, A89L
# VL: B1 VL with A34H, Q100A
# notes: as for B1
# B32: VH SEQ ID NO 570 / VL SEQ ID NO 486 (antibody, IgG4, V domains shown)
# VH: B1 VH
# VL: B1 VL with A34H, A84G
# notes: as for B1
# B33: VH SEQ ID NO 586 / VL SEQ ID NO 326 (antibody, IgG4, V domains shown)
# VH: B1 VH with R72V, A89L, P111Y
# VL: B1 VL with V29I, A34H, Q42E, A51T, A84G, Q100A, I106L
# notes: as for B1
# B34: VH SEQ ID NO 578 / VL SEQ ID NO 382 (antibody, IgG4, V domains shown)
# VH: B1 VH with R72V, A89L
# VL: B1 VL with V29L, A34H, Q42E
# notes: as for B1
# B35: VH SEQ ID NO 570 / VL SEQ ID NO 454 (antibody, IgG4, V domains shown)
# VH: B1 VH
# VL: B1 VL with A34H, Q42E
# notes: as for B1
# Biological target: T1, recombinant human activated Factor VII …
# Experiment: BLI (Fortebio)
row,Kd [nM],Binder
1,21,B1
2,1.1,B2
3,310,B3
4,21,B4
5,23,B5
6,18,B6
7,1.1,B7
8,28,B8
9,25,B9
10,21,B10
11,210,B11
12,1.1,B12
13,24,B13
14,25,B14
15,820,B15
16,9.8,B16
17,13,B17
18,1500,B18

row,Kd [nM],Binder
1,0.92,B19
2,16,B20
3,17,B21
4,19,B22
5,16,B23
6,2400,B24
7,24,B25
8,1.9,B26
9,22,B27
10,12,B28
11,43,B29
12,11,B30
13,27,B31
14,0.99,B32
15,9.9,B33
16,30,B34
17,1.1,B35
